Source: patent publication US20260146073A1 (published 2026)

T1: mutated CDKN2A, frameshift (p16INK4a -1 or +2 indels between M54 and W100); p14ARF -2 or +1 indels between G69 … (human)
T1 peptide: AVCPWTWLR

T2: mutated CDKN2A, frameshift (p16INK4a -1 or +2 indels between M54 and W100); p14ARF -2 or +1 indels between G69 … (human)
T2 peptide: AVCPWTWLR

T3: WT p16INK4a (CDKN2A) peptide on HLA-A*02:01 (human)
T3 peptide: RLPVDLAEEL

T4: WT p16INK4a (CDKN2A) peptide on HLA-A*02:01 (human)
T4 peptide: LPVDLAEEL


How the values were obtained:
[1] = biological target: T1, mutated CDKN2A, frameshift (p16INK4a -1 …); test: multimer staining
[2] = biological target: T2, mutated CDKN2A, frameshift (p16INK4a -1 …); test: multimer staining
[3] = biological target: T1, mutated CDKN2A, frameshift (p16INK4a -1 …); test: cytokine release
[4] = biological target: T3, WT p16INK4a (CDKN2A) peptide on …; test: cytokine release
[5] = biological target: T4, WT p16INK4a (CDKN2A) peptide on …; test: cytokine release

| Binder | binding result [4] | binding result [5] | further results |
| --- | --- | --- | --- |
| 3333 TCR-A (TCR, V domains shown) Valpha: QKEVEQNSGPLSVPEGAIASLNCTYSDRGSQSFFWYRQYSGKSPELIMSIYSNGDKEDGRFTAQLNKASQYVSLLIRDSQPSDSATYLCAVNTASGTYKYIFGTGTRLKVLA Vbeta: not shown |  |  | binding result [1]: recognises |
| 3333 TCR-C (TCR, V domains shown) Valpha: QKEVEQNSGPLSVPEGAIASLNCTYSDRGSQSFFWYRQYSGKSPELIMSIYSNGDKEDGRFTAQLNKASQYVSLLIRDSQPSDSATYLCAVNRAREAAGNKLTFGGGTRVLVKP Vbeta: DIYQTPRYLVIGTGKKITLECSQTMGHDKMYWYQQDPGMELHLIHYSYGVNSTEKGDLSSESTVSRIRTEHFPLTLESARPSHTSQYLCASSRPGSEKLFFGSGTQLSVL |  |  | binding result [1]: recognises |
| 1913 TCR-41BB (TCR, V domains shown) Valpha: ELKVEQNPLFLSMQEGKNYTIYCNYSTTSDRLYWYRQDPGKSLESLFVLLSNGAVKQEGRLMASLDTKARLSTLHITAAVHDLSATYFCAVDPTGANSKLTFGKGITLSVRP Vbeta: GVTQTPKHLITATGQRVTLRCSPRSGDLSVYWYQQSLDQGLQFLIQYYNGEERAKGNILERFSAQQFPDLHSELNLSSLELGDSALYFCASSVAISGEETQYFGPGTRLLVL |  |  | binding result [2]: recognises; binding result [3]: recognises |
| 4286 TCR 10-1 (TCR, V domains shown) Valpha: QKEVEQNSGPLSVPEGAIASLNCTYSDRGSQSFFWYRQYSGKSPELIMFIYSNGDKEDGRFTAQLNKASQYVSLLIRDSQPSDSATYLCAVKSWVIFGKGTRLHILP Vbeta: GVTQSPTHLIKTRGQQVTLRCSPISGHKSVSWYQQVLGQGPQFIFQYYEKEERGRGNFPDRFSARQFPNYSSELNVNALLLGDSALYLCASSPSAQSSYGYTFGSGTRLTVV | no recognition | no recognition |  |
| 4286 TCR 10-2 (TCR, V domains shown) Valpha: QKEVEQNSGPLSVPEGAIASLNCTYSDRGSQSFFWYRQYSGKSPELIMFIYSNGDKEDGRFTAQLNKASQYVSLLIRDSQPSDSATYLCAVPNSGYSTLTFGKGTMLLVSP Vbeta: GVTQSPTHLIKTRGQQVTLRCSPISGHKSVSWYQQVLGQGPQFIFQYYEKEERGRGNFPDRFSARQFPNYSSELNVNALLLGDSALYLCASRTGTVTNSYNEQFFGPGTRLTVL | no recognition | no recognition |  |
| 4286 TCR 10-3 (TCR, V domains shown) Valpha: QSVSQHNHHVILSEAASLELGCNYSYGGTVNLFWYVQYPGQHLQLLLKYFSGDPLVKGIKGFEAEFIKSKFSFNLRKPSVQWSDTAEYFCAVKDTGFQKLVFGTGTRLLVSP Vbeta: GAVVSQHPSWVICKSGTSVKIECRSLDFQATTMFWYRQFPKQSLMLMATSNEGSKATYEQGVEKDKFLINHASLTLSTLTVTSAHPEDSSFYICSARGGRNSFEQFFGPGTRLTVL | no recognition | no recognition |  |
| 4286 TCR 10-4 (TCR, V domains shown) Valpha: QSVSQHNHHVILSEAASLELGCNYSYGGTVNLFWYVQYPGQHLQLLLKYFSGDPLVKGIKGFEAEFIKSKFSFNLRKPSVQWSDTAEYFCAVKDTGFQKLVFGTGTRLLVSP Vbeta: GAVVSQHPSWVICKSGTSVKIECRSLDFQATTMFWYRQFPKQSLMLMATSNEGSKATYEQGVEKDKFLINHASLTLSTLTVTSAHPEDSSFYICSARGGARSYEQYFGPGTRLTVT | no recognition | no recognition |  |
